{
  "source": "patent US20150291521",
  "about": "“PYRROL-1-YL BENZOIC ACID DERIVATIVES USEFUL AS MYC INHIBITORS” (DANA-FARBER CANCER INSTITUTE, INC., published 2015)",
  "binders": {"B1": {"name": "Ebox DNA (dsDNA)", "DNA 1": "GGAAGCAGACCACGTGGTCTGCTTCC", "DNA 2": "GGAAGCAGACCACGTGGTCTGCTTCC"}},
  "key": {"Max/Max homodimer": {"target": "Max/Max homodimer (Homo sapiens, UniProt P61244 P61244:1-160)", "sequence (P61244 whole entry, one chain of several)": "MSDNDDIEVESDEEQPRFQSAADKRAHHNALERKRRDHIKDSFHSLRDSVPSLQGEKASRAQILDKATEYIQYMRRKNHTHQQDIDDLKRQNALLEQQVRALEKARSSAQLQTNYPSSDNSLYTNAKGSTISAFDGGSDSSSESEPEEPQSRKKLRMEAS", "assay": "EMSA; Max/Max/Ebox complex; disrupted by compound 101, not 79", "settings": "tags: His6-Max; chain copies: 2 (stated); label: 5' biotin-triethyleneglycol; self-complementary"}, "c-Myc/Max heterodimer": {"target": "c-Myc/Max heterodimer (Homo sapiens, UniProt P01106-1;P61244 P01106-1:1-439,P61244:1-160)", "sequence (P01106 16-454, chain 1 of 2)": "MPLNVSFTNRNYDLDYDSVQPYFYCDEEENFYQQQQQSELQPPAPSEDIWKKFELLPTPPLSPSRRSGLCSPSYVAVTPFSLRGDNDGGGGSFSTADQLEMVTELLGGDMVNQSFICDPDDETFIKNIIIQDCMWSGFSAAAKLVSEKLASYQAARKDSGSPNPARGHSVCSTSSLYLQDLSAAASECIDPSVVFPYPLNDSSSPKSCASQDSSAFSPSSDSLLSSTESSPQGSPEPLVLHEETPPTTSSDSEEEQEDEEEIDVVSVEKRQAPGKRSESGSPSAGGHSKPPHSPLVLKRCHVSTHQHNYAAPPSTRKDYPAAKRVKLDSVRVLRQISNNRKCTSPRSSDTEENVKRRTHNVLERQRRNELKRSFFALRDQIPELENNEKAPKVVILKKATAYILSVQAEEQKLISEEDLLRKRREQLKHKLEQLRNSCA", "sequence (P61244 whole entry, chain 2 of 2)": "as the sequence (P61244 whole entry, one chain of several) above", "assay": "EMSA; complex formed with purified proteins; inhibited dose-dependently by compound 63", "settings": "tags: c-Myc full-length, His6 removed by thrombin (assay 1) or His6-c-Myc (reciprocal assay), label: 5' biotin-triethyleneglycol, self-complementary"}},
  "data": [
    {"binder": "B1", "values": [
      {"measurement": "binding result", "setting": "Max/Max homodimer", "result": "binds"},
      {"measurement": "binding result", "setting": "c-Myc/Max heterodimer", "result": "binds"}
    ]}
  ]
}
